Read-outs that look alike come from different tables or passages of the source.

The term Kd denotes the equilibrium constant for the complex coming apart. The low end stands for tighter binding, the high end for weaker binding.

Some targets named below: human occludin (Homo sapiens, UniProt Q16625); human claudin-6 (human, UniProt P56747); human claudin-9 (human, UniProt O95484); human claudin-1 (human, UniProt O95832); human claudin-17 (human, UniProt P56750); murine claudin-15 (mouse, UniProt Q9Z0S5); human claudin-19 (human, UniProt Q8N6F1); human claudin-5 (human, UniProt O00501); human claudin-3 (human, UniProt O15551).

What all share (experiment): BLI
(BLI is a label-free optical method that tracks binding on a fibre tip over time.)

In assay [1] the target is COP-1, synthetic antibody fragment (sFab), with C-terminal histidine tag.
Assay [2] has the same target. The source holds these as a separate data set.
Assay [3] has as its target human junctional adhesion molecule-A (Homo sapiens, UniProt Q9Y624).
In assay [4] the target is C-terminal domain of Clostridium perfringens enterotoxin, in solution (Clostridium perfringens, UniProt P01558).
Sequence of C-terminal domain of Clostridium perfringens enterotoxin, in solution (P01558 198-319): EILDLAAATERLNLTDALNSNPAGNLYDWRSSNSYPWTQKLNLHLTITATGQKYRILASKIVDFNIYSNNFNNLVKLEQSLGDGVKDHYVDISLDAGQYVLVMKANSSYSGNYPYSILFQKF
Assay [5] addresses human claudin-18 splice variant 18.1 (human, UniProt P56856).
Assay [6] deals with human claudin-18 splice variant 18.2 (human, UniProt P56856-2).

Sequence of murine claudin-15 (Q9Z0S5 whole entry): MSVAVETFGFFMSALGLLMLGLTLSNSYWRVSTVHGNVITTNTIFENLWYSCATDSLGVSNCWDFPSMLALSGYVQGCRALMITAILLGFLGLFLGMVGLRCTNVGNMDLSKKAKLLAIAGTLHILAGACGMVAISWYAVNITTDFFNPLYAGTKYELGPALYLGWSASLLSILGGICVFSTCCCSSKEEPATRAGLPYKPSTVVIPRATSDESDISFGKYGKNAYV
Sequence of human claudin-5 (O00501 whole entry): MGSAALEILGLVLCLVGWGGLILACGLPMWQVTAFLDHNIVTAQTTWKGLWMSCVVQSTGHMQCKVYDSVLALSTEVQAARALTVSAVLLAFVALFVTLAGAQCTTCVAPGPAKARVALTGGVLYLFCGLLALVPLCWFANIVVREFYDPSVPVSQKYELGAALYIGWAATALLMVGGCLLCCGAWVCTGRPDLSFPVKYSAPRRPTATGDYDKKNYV
Sequence of human claudin-1 (O95832 whole entry): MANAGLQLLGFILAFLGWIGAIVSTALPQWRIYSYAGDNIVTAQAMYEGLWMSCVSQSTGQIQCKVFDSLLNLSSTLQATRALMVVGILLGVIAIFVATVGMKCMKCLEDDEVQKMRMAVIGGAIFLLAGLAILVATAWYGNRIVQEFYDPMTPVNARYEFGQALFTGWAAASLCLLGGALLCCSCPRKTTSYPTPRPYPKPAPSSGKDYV
Sequence of human claudin-6 (P56747 whole entry): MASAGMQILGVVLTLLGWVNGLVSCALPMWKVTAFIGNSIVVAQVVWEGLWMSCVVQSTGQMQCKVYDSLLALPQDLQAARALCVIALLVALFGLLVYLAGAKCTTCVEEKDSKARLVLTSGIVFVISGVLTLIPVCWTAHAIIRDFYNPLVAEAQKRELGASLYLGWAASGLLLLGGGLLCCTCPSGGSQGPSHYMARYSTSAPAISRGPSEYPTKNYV
Sequence of human claudin-17 (P56750 whole entry): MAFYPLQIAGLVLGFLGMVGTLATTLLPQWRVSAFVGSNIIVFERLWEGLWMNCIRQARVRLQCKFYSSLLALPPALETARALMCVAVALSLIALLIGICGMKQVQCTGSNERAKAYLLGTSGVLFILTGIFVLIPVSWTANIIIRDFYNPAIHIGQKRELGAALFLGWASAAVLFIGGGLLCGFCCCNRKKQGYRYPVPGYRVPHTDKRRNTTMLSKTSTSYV
Sequence of human claudin-3 (O15551 whole entry): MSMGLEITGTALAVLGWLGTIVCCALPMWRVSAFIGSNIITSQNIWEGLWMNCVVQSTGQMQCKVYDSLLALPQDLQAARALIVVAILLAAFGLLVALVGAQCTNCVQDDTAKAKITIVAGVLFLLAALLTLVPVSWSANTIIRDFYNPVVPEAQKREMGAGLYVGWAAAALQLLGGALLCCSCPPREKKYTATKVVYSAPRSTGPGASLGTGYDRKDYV
Sequence of human claudin-19 (Q8N6F1 whole entry): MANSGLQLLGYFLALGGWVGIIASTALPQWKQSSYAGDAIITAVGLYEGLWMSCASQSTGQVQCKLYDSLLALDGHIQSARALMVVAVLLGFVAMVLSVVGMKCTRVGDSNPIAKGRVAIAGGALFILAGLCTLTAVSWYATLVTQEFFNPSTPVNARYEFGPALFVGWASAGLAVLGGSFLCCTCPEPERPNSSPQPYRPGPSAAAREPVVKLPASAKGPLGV
Sequence of human claudin-9 (O95484 whole entry): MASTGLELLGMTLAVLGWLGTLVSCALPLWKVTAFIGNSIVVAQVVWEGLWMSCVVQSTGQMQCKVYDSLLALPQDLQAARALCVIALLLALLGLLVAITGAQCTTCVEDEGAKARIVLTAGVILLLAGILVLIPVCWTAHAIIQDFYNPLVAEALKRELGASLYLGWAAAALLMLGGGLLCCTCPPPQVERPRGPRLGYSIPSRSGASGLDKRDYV

Turning to “human claudin-4 (from UniProt O14493) (natural protein)”, in assay [1], the Kd came out at 106 nM and the t1/2 of the complex is 30 min. In assay [2], the Kd came to 70.6 nM.

B1: COP-1, synthetic antibody fragment (sFab), with C-terminal histidine tag (Fab, V domains shown)
VH: EVQLVESGGGLVQPGGSLRLSCAASGFNFSSSYIHWVRQAPGKGLEWVASISSSSGSTSYADSVKGRFTISADTSKNTAYLQMNSLRAEDTAVYYCARWFHPWWWWEYLFRGAIDYWGQGTLVTVSS
VL: DIQMTQSPSSLSASVGDRVTITCRASQSVSSAVAWYQQKPGKAPKLLIYSASSLYSGVPSRFSGSRSGTDFTLTISSLQPEDFATYYCQQSSSSLITFGQGTKVEIK
Regarding B1, the figures for the binding result (in the assay with human occludin; in assay [3]; in assay [4]) were “no binding (tested: 500 nM)”, “no binding (tested: 500 nM)” and “no binding”, respectively. The Kd with human claudin-6 came out at 59.5 nM; with human claudin-9, 66 nM; with human claudin-1, 61.3 nM; with human claudin-17, 80.2 nM; in the assay with murine claudin-15, 59 nM; with human claudin-19 it was 62.2 nM. Besides, the Kd with human claudin-5 came out at 75.8 nM; in assay [5], 92.4 nM; in the assay with human claudin-3 it was 57.9 nM; in [6], 66.4 nM.

Values taken from paper doi:10.1101/2024.11.10.622873 (bioRxiv, 2024).
